# Results from the supplement of paper PMC12042874.
# ± gives the uncertainty stated by the source.
# Assay: amyloid nucleation score (Sup35N fusion, yeast selection) (log enrichment); library NNK2; higher = more nucleation; inactive = no reads after selection
# Summary of the method: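 Yeast lacking psi expressed peptides of 20 random codons fused to Sup35N, received 100 μM copper sulfate for 24 hours, and were then grown for 7 days at 30°C on medium lacking adenine and uracil. Illumina sequencing of input and output plasmid inserts provided the reads. Nucleation scores are DiMSum log enrichments of output over input, centred on the mode of non-aggregating sequences. Any sequence with under 100 input reads was excluded.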
row,Substance,amyloid nucleation score
1,HHRGMIMLHNINYLRSFNAT,-0.465 ± 0.44
2,HHVEGMGYFLS,0.175 ± 0.25
3,HHVGGMTV,0.691 ± 0.8
4,HIARCNNWNACLMSRRHNCW,3.6 ± 0.061
5,HIHSKQIRVFNFSNFLEQIY,6.113 ± 0.033
6,HIILIEGSMVCQTLVRGDLV,5.514 ± 0.042
7,HILRQGQYGYVCCASASYEC,7.312 ± 0.038
8,HIRDTESTTLVRVRGCSSPK,0.07 ± 0.61
9,HISLVSCHEM,-0.213 ± 1.1
10,HITRGVVPTAV,0.655 ± 0.74
11,HKGAARQPRPYMEAVIGPHP,0.792 ± 0.27
12,HKGVM,-1.06 ± 0.5
13,HKLLCGYTQSQHQRIGFQEF,-0.733 ± 1.1
14,HKWKII,-1.55 ± 0.75
15,HLCPTHLNNETLRTNFWAN,1.96 ± 0.19
16,HLDLDPPM,0.284 ± 1.1
17,HLFYCRSIGDILRSFGETPT,inactive
18,HLNWHLFILGLFGSATGEDI,-1.48 ± 1.1
19,HLPGWSGWRSDFDIHTSGVG,1.92 ± 0.25
20,HMYLDMPAQLTS,2.69 ± 0.062
21,HNCFFITRCSKVLRAYFSTL,-1.4 ± 1.1
22,HNEPG,-1.2 ± 0.75
23,HNITLLQLNCKWLKMVYEWT,9.366 ± 0.061
24,HNRSFILNTAKFLVVNNPLA,inactive
25,HPLVLWSIELCMMFFNSLTD,-0.565 ± 0.48

row,Substance,amyloid nucleation score
1,HQIHLSY,-0.593 ± 1.1
2,HQRSDYV,0.383 ± 0.74
3,HQYGLNIKCFKCAILSKSGT,-0.562 ± 1
4,HRCNMGLSWTGVYQRVGKSS,0.757 ± 0.57
5,HRFVFGVYWVVVR,inactive
6,HRLFSY,-0.776 ± 0.63
7,HRTKRGRHFIFRTCKQYYPG,2.81 ± 0.071
8,HRVWRVAFVQVRSFIY,-0.038 ± 1
9,HRYSRCIHLVKWVWCVQMIA,1.29 ± 0.32
10,HSCVYYTVYLRLFSMKGSEN,5.361 ± 0.038
11,HSFNYKFLLTI,-0.001 ± 0.54
12,HSGMRMRPASSCSPKKP,0.189 ± 0.49
13,HSLFRLLRTSVHAEKSWSNS,2.88 ± 0.063
14,HSLLSLLVVFYLQDRSRVIC,0.848 ± 0.13
15,HSLRGTWMGMVSASCTPVDM,4.27 ± 0.057
16,HSMSKDLGWFHPNVNRFGFF,inactive
17,HSPYRFKSKCQRINMFCVIT,5.713 ± 0.047
18,HSSAFMRMLMFRELRRNSDP,inactive
19,HSSMLLSVFDLNARK,-0.174 ± 0.49
20,HSWILNHNIDVTIGNVTWSG,6.863 ± 0.03
21,HTEFGRVGNICLGMRCEVDW,0.792 ± 0.4
22,HTHTWT,1.31 ± 0.38
23,HTKMYRAAARMVGAGNDFDM,0.146 ± 0.46
24,HTTLHSSAIQVWSWRLLYFV,5.061 ± 0.049
25,HTVLPWYTIRYKWEGVGLTD,0.403 ± 0.45

row,Substance,amyloid nucleation score
1,HTWGAHRFCRWRNTSASDSW,8.703 ± 0.03
2,HVADTGLIMQYVVSGLRVAG,0.602 ± 0.22
3,HVAFKLKVIVRIVSLTSGER,2.94 ± 0.075
4,HVFMSTIKICRDQLNHQLRE,7.729 ± 0.037
5,HVGLKSLHTMASWFMFDHNI,inactive
6,HVILM,1.65 ± 0.33
7,HVLFIAKLDFALTEFLRMCE,0.735 ± 0.19
8,HVNYWGRLCMKKRCNVDVNH,5.634 ± 0.043
9,HVRHGESLFFANQA,-0.038 ± 1.1
10,HVSFLIDRNTMRGLMASSNN,inactive
11,HVSNSFKSFCN,1.52 ± 0.2
12,HVYLSLEDQGILNSTECMQH,-0.393 ± 1.1
13,HVYPVWFCWLYSFRLHYSQV,-0.149 ± 0.56
14,HWSFS,2.85 ± 0.17
15,HWSYKDSLWVLDAAESVNMS,0.622 ± 0.66
16,HYCSVRMWLTTKEADPRTSL,0.739 ± 0.31
17,HYLVS,0.326 ± 0.49
18,HYMDSNIVLNSAKSRRKDAW,0.132 ± 0.24
19,HYRISLSIPHIDHAKAQALL,-0.603 ± 1
20,IADQTSSSDYLVRTVFNFSV,1.72 ± 0.099
21,IAHRVITMP,-0.277 ± 1.1
22,IAIKM,3.25 ± 0.08
23,IAMFT,6.299 ± 0.044
24,IARSKVGRRYHVGRFRCVCV,-0.095 ± 0.44
25,IARVDLKFMESIRSHMV,1.71 ± 0.56

row,Substance,amyloid nucleation score
1,IATAKTRQGFPLMSTLPAIV,0.37 ± 0.5
2,IATTATSVGSVR,0.924 ± 0.25
3,IAVNMCSFFVSDLHPMRWGY,7.495 ± 0.035
4,ICACKSY,5.28 ± 0.076
5,ICFNTSLVPECKHSRSEFDS,0.643 ± 0.64
6,ICGVSFTGAIYARGGRLRIR,0.145 ± 0.63
7,ICIHYANNLLVNMRTKMCHK,9.369 ± 0.054
8,ICIVVVCDFCIYRMCATGTV,0.735 ± 0.28
9,ICKGRCVASGWV,1.61 ± 0.14
10,ICKRIFGRYRYLSSEVDCVS,-1.54 ± 0.55
11,ICQCRSLRGRAYQVLGVNKS,0.731 ± 0.57
12,ICQRVDCSLCGPGWCTFVEH,9.398 ± 0.051
13,ICVECSYVYMTGGKV,3.79 ± 0.057
14,IDCWCSVSWATAL,-0.4 ± 0.64
15,IDFKHVL,-0.964 ± 0.39
16,IDFVVFFT,1.09 ± 0.27
17,IDILTVICVPEIYNWFLMQY,-0.842 ± 0.35
18,IDLAHGWSSSH,0.66 ± 0.57
19,IDLTHECVRVWVDSKLLSPF,-0.742 ± 1.1
20,IDMYRRQYDQSQIKCNFSS,-0.087 ± 0.45
21,IDNYFIRVKTFSDFMSSLDG,inactive
22,IDVGI,0.106 ± 0.2
23,IDYRPDCQRPVLVYLNKGCM,-0.389 ± 0.24
24,IEDYACMLNREMG,5.36 ± 0.049
25,IEFSDQVRCYLFCCRC,8.977 ± 0.07

row,Substance,amyloid nucleation score
1,IEIHALRPEQMFSVLGYGVQ,0.146 ± 0.27
2,IEMLSNY,-0.575 ± 0.49
3,IEPSHFNGNSASWV,-0.184 ± 0.63
4,IFDAFWYTVTVRDNDG,1.76 ± 0.17
5,IFFVRACSKAGFVQPLSIFY,-0.113 ± 0.65
6,IFIRMH,2.48 ± 0.16
7,IFPLDQLQIFWLSLTMTMQL,-0.829 ± 1.1
8,IFQRWHIS,-2.67 ± 1.1
9,IFRCRYTSGRFNAALSCC,-1.44 ± 0.49
10,IFRDNVYFIE,-0.692 ± 1
11,IFSTPKTLDPVFYCL,inactive
12,IFTKNFIPCDFFMS,-2.05 ± 0.76
13,IFYGRYGAILWGAKCLY,1.96 ± 0.21
14,IGGLISLGISSIERGYSSLI,inactive
15,IGIDRL,-0.069 ± 0.49
16,IGLTLHMRRVVGAKSFKMPL,0.29 ± 0.77
17,IGSLNMLLLGRLVVWMRHIA,0.312 ± 0.54
18,IGSRVVYISRVLLKNWTLVT,-0.592 ± 0.76
19,IGWFKRRSCVEFGRRRMRIL,-1.3 ± 1.1
20,IHAFLALVNCNDTSTKTEVK,-0.435 ± 0.56
21,IHGVFCEFVRIIRNVGSAIR,-0.226 ± 0.35
22,IHLKLRRYLDNYYLNATNCG,-0.509 ± 0.31
23,IIAPSSEL,-0.479 ± 0.63
24,IICAKDMFNLFIKVRQYGWS,4.698 ± 0.038
25,IIEIRAASGPVGFSDINMF,-0.459 ± 1.1

row,Substance,amyloid nucleation score
1,IIGGTYIWVCVRGPTGRFDG,9.373 ± 0.064
2,IIKECEWNCIVTSDIAYVRW,5.481 ± 0.052
3,IILFTIARDLSRVGFRFLMA,-0.545 ± 0.56
4,IILTVNRRMDLEGYFYFMFE,-0.93 ± 1
5,IIMFRVYVM,-0.964 ± 0.76
6,IIRVSSCPCTNI,inactive
7,IISENAYCLPMIMT,-0.437 ± 0.54
8,IITGLQFLD,-0.691 ± 0.79
9,IITIIKF,7.164 ± 0.03
10,IIVFKEESYIYKTRSVLGSR,-0.503 ± 0.56
11,IIVYFVAFASTGARASK,-0.951 ± 0.54
12,IKEFYISQNFVNSHLRLANM,-1.51 ± 1.1
13,IKGGRQAYNPTLGEVRGCAR,2.93 ± 0.13
14,IKISNLTTKVMSHFVSGVAK,-0.982 ± 0.48
15,IKLLLMSLTVSVTGILQFKP,4.51 ± 0.05
16,IKLQMSLATAQIETGTHGLH,3.51 ± 0.16
17,IKSVRTWGSLESA,-0.073 ± 0.34
18,IKTSDYNHFRYWSKRPYVSW,-0.738 ± 1.1
19,IKTYNGGSWGALSCIALRLI,-1.39 ± 0.78
20,ILASCTSRCFESEVRGTSFA,0.568 ± 0.39
21,ILCYMFVYYAYA,0.016 ± 1.1
22,ILDRYLVHGI,-0.394 ± 0.78
23,ILELDMLLCKKVTHL,4.3 ± 0.089
24,ILFWFRT,4.9 ± 0.043
25,ILGCWELSHM,-0.849 ± 1.1

row,Substance,amyloid nucleation score
1,ILISIISFTKSCNISISLEW,-0.603 ± 1.1
2,ILLHIDNGRRSFSNIKATS,-0.886 ± 1.1
3,ILLLFVPSDFRNICFE,-0.532 ± 0.29
4,ILLMNVNGILSIRVQRRKRV,-0.623 ± 0.79
5,ILMCETLWNWLKWIPKFNSC,-0.403 ± 0.5
6,ILRLTAVCHGHFAVRPDWKR,0.248 ± 0.35
7,ILRSRGERISASY,2.97 ± 0.14
8,ILVRTSCGGM,-0.898 ± 1.1
9,ILVTAYTFTMVRSDEGCRKV,3.63 ± 0.085
10,ILVWANSHVLDVDHRDRGRR,1.9 ± 0.13
11,ILVYDEVTSYQDPYFS,-0.69 ± 0.63
12,ILWISHLELCENVLVLDWQM,2.99 ± 0.048
13,ILYGSGVFSSG,-1.17 ± 1.1
14,ILYYLGWVASALEGHYLDES,-0.853 ± 0.55
15,IMCQVSR,-0.171 ± 1
16,IMCRETRLYMGMFVFDQLPQ,6.46 ± 0.079
17,IMLATAAYFVLLGIFPGAWF,inactive
18,IMLGTFMRNLQNLQHFVRHV,0.337 ± 0.57
19,IMPLSKLCMWETIRSDGRRG,1.07 ± 0.29
20,IMRVMPICRFVII,1.25 ± 0.12
21,IMSSV,inactive
22,IMVRLLDAYHTMRAKDSMGN,0.06 ± 0.62
23,INGQDKHRHWSFTLFYKKRY,-0.145 ± 1.1
